Test: yeast display, Sf9 membrane polyspecificity reagent, FACS + sequencing; frameworks hold sequencing errors
Method in brief: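 Genes from sorted yeast were amplified by colony PCR, read by MiSeq 2 × 250 sequencing and filtered on CDR length. These cells carried a synthetic nanobody library in Saccharomyces cerevisiae BJ5465 and were sorted by FACS into low and high (top ~1%) gates on anti-HA and streptavidin fluorescence. Polyreactivity is labelled according to the gate of origin.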

Sequence | polyreactivity (PSR sort gate)
QVQLVESGGGLVQEGGSLRLICAASGSIFWLYAMGWYRQAPGKERELVAAIDSGDSTKYADSVKGRFTISRDNAKYTVYLQMNSLKPEDTAVYYCNASRRYHVRAPYDYWGQGTQVTVSS | low polyreactivity
QVQLVESGGGLVQAGGSLRLSCAASGSIFGYNTMGWYREAPGKERELVAAISYRGGSTYADSVKGRFTISRDNAKNTVYLQLNSLKPEDTAVYYSAATSYTATWRYYYWGQGTQVTVSS | high polyreactivity
QVQLVESGGGLVQAGGSLRLSCAASGSTFRVNAMGWYRQAPGKERELVAAIRSSGGTTYYADSVQGRFTISRDNAKNTVYLQMNSLKPEDTAVYYCAAEGYRSWRGLRSRYYYWGQGTQVTVSS | high polyreactivity
QVQLVESGGGLVQAGGSLRLSCASSGSTFTRYAMGWYRQAPGKERELVAAINSSGGRTYYADSVKGRFTISRDNAKNTVYLQMNSLKPEDTAVYYCAATRGRYREDEDYWGQGTQVTVSS | high polyreactivity
QVQLVESGGGLVQAGGSLRLSCAASGSTSIYYTMGWYRQAPGKERELVAYADSVKGRFTISRDNAKNTVYLQMNRLKPEDTAGYYCAAPRTYYSELTSPYDYWGQGAQVTVSS | low polyreactivity
QLHLEESGGGLVQAGGSLRISCAASGSTFGIYAMGSYRQAPGKEREILAAISVGGGRTYYADTVKGRFTISRDNAKNTVLLQMNSLKPEDTAVYYCAVYGFWGLGTQVTVSS | high polyreactivity
QVQLVESGGGLVQAGGSLRLSCAASGRIFAQYAMGWYRQAPGKERELVADISSGVRTYADSVKVRFTISRDNAKNTVYLQMNSLKPEDTAVYYCNAYYIIFTRNDYWGQGTQVTVSS | low polyreactivity
QVQLVESGGGLVQAGGSLRLSCAASGSNFSDNAMGWYRQAPRKERELVAAITSGGSTYYADSVKGRFTISRDKAKNTVYLQMNSLKPEDSAVYYCAADYWGQGTQVTVSS | low polyreactivity
QVHLVESGGGLVQAGGSLRLSCAASGSTFVNYTMGWYIQAPGKERELVAITIGAGRTYYADSVKGRFTISRDNAKNTVYLPMNSLKPEDTAVYYCAVRLYANSGRFDYWGQGTQVTVSS | low polyreactivity
QVQLVESGGGLVQAGGSLRLSCAASGSTFKVYAMGWYRQAPGKERELVAAISRSGGRTYYADSVKGRFTISRDNAKNTVYLQMNSLKPEDTAVYYCNRDYTFSQGHYSGSYGYWGQGTQVTVSS | high polyreactivity
QVQLVDSGRGLVQAGGSLRLSCAASGSTFRWNAMGWYRQAPGKERELVAAIDNSGTSTYYADSVKGRFTISRDNAKNTVYLQMNSLKPDDTAVYYCNVRISNTAYRYPTFDYWGQGTQVTVSS | low polyreactivity
QVHLVESGGGLVQAGRSLRLSCAASGSIFYVYAMGWYRQAPGKETQLVATISTGGSTYYADSVKGRFTISRDNAKNTVYLQMNSLKPEDTAVYYCNAQFTPRYWGGYDSWGQGNQVTVSS | low polyreactivity
QVQLVESGGGLVQAGGSIRLSCAASGRTFGQNPMGWYRQAPGKERELVAVITRGGSTNYADSVKGRFTISRDNAKNTVYLQMNSLKPEDTAVYYCAADYTAYGYDYWGQGTQVTVSS | low polyreactivity
QVQLVESGGGLVQAGGSLRLSCAASGGIFSRYGLGWYRQAPGKERELVAAITGRGGSTYYADSVKGRFTISRDNAKNTVYLQMNSLKPEDTAVDYCAAKVRSLNWFDYWGQGTQVTVSS | high polyreactivity
QVQLEESGGGLVQAGGSLRLSCAASGSTFWRYAMGWYRQAPGKERELVAAISWNGGSTYYADSVKGRFTISRDNAKNTDYLQMNSLKPEDTSVFYCNRRYPFYSRYNNDYWGQGTQVTVSS | high polyreactivity
QVQHVESGGGLVQAGGSLRLSCAASGRIFGGNAMGWYRQAPGKERELVAAISIGGGSTNYADSVKGRFTISRDNAKNTFYLQMNSLKPEDTAVYYCAARTRYTSVGKLYSWGQGTQVTVSS | high polyreactivity
QVQLVESGGGLVQAGGSLRLSCAASGSIFRGYAMGWYRQAPGKERELVAVITKSGGRTYYADSVKGRFTISRDNAKNTVYLQMNRLKPEDTAVYYCAKQPGSAYDYWGQGTQVTVSS | high polyreactivity
QVQLVESGGGLVQAGGSLRLSCAASGRTFGANVMGWYRQAPGKERELVARISNGGRTSYADSVKARFTISRDNAKNPVYLQMNSLKPEDTAVYYCAALVVNVFPRYGYWGQGTQVTVSS | high polyreactivity
QVQLVESGGGLVQAGGSLRLSCAASGRIFGWYAMGWYRQAPGKERELVAAISSAGRTYYADSVKGRFTISRDNAKNTDYLQMNSLKPEDTAVYYCAAEIARSFYRYTYYYWGQGTQVTVSS | high polyreactivity
QVQLVESGGGLVQAGGSLRLSCAASGSIFGVYDMGWYRQAPGKERELVAVINSNGGSTYYADSVKGRFTISRDNAKNTVYLQMNSLKPEDTAVYYCAAERATVKFGYWGQGTQVTVSS | low polyreactivity
QVQLEESGGGLVQAGGSLRLSCAASGSTFGRNTLGSYRPAPGKERELVAVISRRGGITTYADSVKGRFTISRENAKNTVYLQMNSLKPVDTAVYYCNAVSRVYNKGQYGYWGQGTQVSVSS | high polyreactivity
QVQLVESGGGLVQAGGSLRLSCAASGSIFAANAMGWYRQATGKESELVAAISWSGGSTYADSVKGRFTISRDNAKNTVYLQMNSLKPEDTAVYYCNAFVYVGTGRGYDTLDYWGQGTQVTVSS | low polyreactivity

Sequence | polyreactivity (PSR sort gate)
QVQLVESGGGLVQAGGSLPLSCAASGRIYGGNVMGWYRQAPGKERELVAAISKRGDSTYYADSVKGRFTISRDNAKNTVYLQMNSLKPEDTAVYYCAAVRRGDRGTDMDYWGQGTQVTVSS | high polyreactivity
QVQLVESGGGLVQAGGSLRLSCAASGFTFEWNTMGWYRQAPGKERELVARINWSSGRTYYADSVKGRFTISRDNAKNTVYLQMNSLKPEDTAVYYCAASPYHSAYQNMDYWGQGTQVTVSS | high polyreactivity
QVQLVESGGGLVQAGGSLRLSCAASGSIYYNAMGWYRQAPGKERELVASISTGDSTDYADSVKGRFTISRDNAKNTVYLQMNSLKPEDTAVYYCAAVTRLGYWDDYWGQGTQVTVSS | low polyreactivity
QVQLVESGGGLVQAGGSLRLSCAASGRILGRYAMGWYRQAPGKEREVVATITSGDDTNYADSVKGRFTISRDHAKNTVYLQMNSLKPEDTAVGFWGQGSQVTVSS | low polyreactivity
QVQLVESGGGLVQAGGSLRLSCAASGSTFGYYAMGWYRQAPGKERELVAAITWGGASTDYADSVKGRFTISRDNAKNTVYLQMNSLKPEDTAVYYCAKDNWDNPRPTSEMDYWGQGTQVTVSS | low polyreactivity
QVQLVESGGGLVQAGGSLRLSCAASGFTLYSYAMGWYRQAPGKERELVAAISWSGTRTYYADTVKGRFTISRDNAKNTVYLQMNSLKPEDTAVYYCAARGYRYGYGYWGQCTQVTVSS | high polyreactivity
QVQLVESGGGLVQAGGSLRLSCAASGFTFGGYAMGWYIQAPGKERELVSAISGSGGRTYYADSVKGRFTISRDNAKNTVYLQMNSLKPEDTAVYYCATDGYWQSNGAFYYVARHGGYCGQGTQVTVSS | low polyreactivity
QVQIVESGGGLVQAGGSLRLSCAASGSTFGDNAMGWSRQAPGKERELVAAITRSGGSTYYADSVKGRFTISRDTAKNTVYLHMHSLKPEDTAVYYCNADWYFQYPYDYGGQGTQVTVSS | low polyreactivity
QVQLVESGGGLVQAGGSLRLICAASGSTFSQYTMGWYRQAPGKERELVAAITGSGGGTYYADSVKGRFTISRDNAKNTVYLHMESLKPVDTAVYYCAALTLNEKYTSRRGVYYWGQGSQVTVSS | high polyreactivity
QVQLVESGGGLVQAGGSLRLSCAASGSTFYPYAMGWYRQATGKERELVAAISSGGSTSYADSVKGRFTISRDNAKNTVYLQMNSLKPEDTAVYFCNASSPGAVPVYDYDYWGQGTQVTVSS | low polyreactivity
QVQLVESGGGLVQAGGSLRLSCAASGLIFHRNAMGWYRQAPGTERELVAAITKTGGGTYYADSVKGRFTISRDNAKNTVYLQMNSLKPEDTAVYYCAADTQRTFYYWGQGTQVTVSS | low polyreactivity
QVQLVESGGGLVQAGGSLRLSCAASGYTFVTNAMGWYRQAPGKERELVAAITTVGSTNYADSVKGRFTISRDNAKNTVYLQMNSLKPEDTAVYYCNANWYEWYDWGQGTQVTVSS | low polyreactivity
QVQLVESGGGLVQAGGSLRLSCAASGSIFDPYAMGWYRQAPGKERELVAAITASGSSTYYADSVKGRFTISRDNAKNTVYLQMYSLKPEDTAVYYCAADRANWEYLLSWLGYDYWGQGTQVTVSS | low polyreactivity
QVQLVESGGGLVQAGGSLRLSCAASGSIFSYYAMGWYRQAPGKERELVAAITTSGGSTYYADSVKGRVTISRDNAKNTVYLQMNSLKPEDTAVYYCAAETAWYITTGYDYWGQGTQVTVSS | low polyreactivity
QVQLVESGGGLVQAGGSLRLSCAGSGGPFLDYIGWYRQAPGKEMVLVAAITFSGGSTYYADSVKGRLTISRENAKNTVYVQMNSLKPDDTAVYFCAAGWYDWPKYLLGGYTYYLYDSWRQGTQVTVSS | low polyreactivity
QVQLVESGGGLDQAGRSLRLSCAASGSTFPYTAMGWYRQAPGKYRELVAGITDGDGSTSYADSVKGRFTISRDNAKNTVYLQMNCMKPELPAVYYCAARYTYYADEDDYWGQGSQVTVSS | low polyreactivity
QVQLVESGGGLVQAGGSHSLRCAASGSIFYRYDRGWYRQAPGTARELVAAITRSGGSTYYADSVKGRFTISRDNAKNTVYLQMNSLKPEDTAVYFCNASIDRYRLLIFPRPYWKYAYWGQGTQVTVSS | low polyreactivity
QVQLVESGGGLVQAGGSLRLSCAASGFTFTKYAMGWYRQAPGKERELVAAITSGTSTYYADSVKGRFTISRDNAKYTVYLQMNSLKPEVTAVYYCAAPLYGRYSYGYWGQCTQVTVSS | high polyreactivity
QVQLVESGGGLVQAGGSLRLSCAASGLIFVSYGMGWYRQAPGKERELVAAITFSGGSTYYADSVKGRFTISRDNAKNTVYLQMNSLKPEDTAVYYCNADYYPGYDYWGQGTQVTVSS | high polyreactivity
QVQLVESGGGLVQAGGSLRISCSASGGIFDPYAMGWYRQAPGKERELVAAITNSGGSTYYADSVKGRFTISRDNAKNTVYLQMNSLKPEDSAVYYCAAEGLYVGYDYWGHGTQVTVSS | low polyreactivity
QVQLVESGGGLVQAGGILRLSCAASGSTFVRYVMVWYRQAPGKERELVAAISRRGGSTYYADSVKGRFTISRDNAKNTVYLQMNSLKPEDTAVNYCARTVGYRTLLESDSWGQGTQVTVSS | high polyreactivity

Reference: the nanobody polyreactivity screen of Harvey et al. (2022)
